{
  "source": "paper PMC8828381",
  "molecular_target": "biotinylated SARS-CoV-2-S1 (SINO BIOLOGICAL #40591-V08H-B) (SARS-CoV-2)",
  "assay": "SPR",
  "data": [
    {"substance": "integrin α5β1 extracellular domain with flag tag on α5 and His tag on β1 (from UniProt P08648;P05556) (complex)", "values": [
      {"measurement": "Kd", "value": 31, "unit": "nM"}
    ]}
  ]
}
